{"source": "the supplement of paper PMC11246515", "assay": "total protein half-life in vivo (active degradation + dilution); higher = more stable protein", "key": {"[1]": {"settings": "E. coli NCM3722 delta-clpP delta-lon delta-hslV, growth: N-lim chemostat, doubling time 6 h"}, "[2]": {"settings": "E. coli NCM3722 delta-clpP, growth: N-lim chemostat, doubling time 6 h"}, "[3]": {"settings": "E. coli NCM3722 delta-hslV, growth: N-lim chemostat, doubling time 6 h"}, "[4]": {"settings": "E. coli NCM3722 delta-lon, growth: N-lim chemostat, doubling time 6 h"}, "[5]": {"settings": "E. coli NCM3722 delta-smpB, growth: N-lim chemostat, doubling time 6 h"}, "[6]": {"settings": "wild type E. coli NCM3722, growth: C-lim chemostat, doubling time 3 h"}, "[7]": {"settings": "wild type E. coli NCM3722, growth: C-lim chemostat, doubling time 6 h"}, "[8]": {"settings": "wild type E. coli NCM3722, growth: C-lim chemostat, doubling time 12 h"}, "[9]": {"settings": "wild type E. coli NCM3722, growth: N-lim chemostat, doubling time 6 h"}, "[10]": {"settings": "wild type E. coli NCM3722, growth: N-lim chemostat, doubling time 12 h"}, "[11]": {"settings": "wild type E. coli NCM3722, growth: P-lim chemostat, doubling time 6 h"}, "[12]": {"settings": "wild type E. coli NCM3722, growth: P-lim chemostat, doubling time 12 h"}}, "note": "± gives the standard deviation of the averaged measurements.", "data": [{"sequence": "MRLLHTMLRVGDLQRSIDFYTKVLGMKLLRTSENPEYKYSLAFVGYGPETEEAVIELTYNWGVDKYELGTAYGHIALSVDNAAEACEKIRQNGGNVTREAGPVKGGTTVIAFVEDPDGYKIELIEEKDAGRGLGN [P0AC81]", "values": [{"measurement": "total protein half-life in vivo", "setting": "[1]", "value": "5.13 ± 0.38", "unit": "h"}, {"measurement": "total protein half-life in vivo", "setting": "[2]", "value": "4.5 ± 0.53", "unit": "h"}, {"measurement": "total protein half-life in vivo", "setting": "[3]", "value": "4.72 ± 0.37", "unit": "h"}, {"measurement": "total protein half-life in vivo", "setting": "[4]", "value": "5 ± 0.3", "unit": "h"}, {"measurement": "total protein half-life in vivo", "setting": "[5]", "value": "4.3 ± 0.39", "unit": "h"}, {"measurement": "total protein half-life in vivo", "setting": "[6]", "value": "3.48 ± 0.63", "unit": "h"}, {"measurement": "total protein half-life in vivo", "setting": "[7]", "value": "5.44 ± 0.1", "unit": "h"}, {"measurement": "total protein half-life in vivo", "setting": "[8]", "value": "8.9 ± 0.29", "unit": "h"}, {"measurement": "total protein half-life in vivo", "setting": "[9]", "value": "4.38 ± 0.4", "unit": "h"}, {"measurement": "total protein half-life in vivo", "setting": "[10]", "value": "8.01 ± 1", "unit": "h"}, {"measurement": "total protein half-life in vivo", "setting": "[11]", "value": "5.41 ± 0.27", "unit": "h"}, {"measurement": "total protein half-life in vivo", "setting": "[12]", "value": "11.6 ± 0.91", "unit": "h"}]}, {"sequence": "MRLPIFLDTDPGIDDAVAIAAAIFAPELDLQLMTTVAGNVSVEKTTRNALQLLHFWNAEIPLAQGAAVPLVRAPRDAASVHGESGMAGYDFVEHNRKPLGIPAFLAIRDALMRAPEPVTLVAIGPLTNIALLLSQCPECKPYIRRLVIMGGSAGRGNCTPNAEFNIAADPEAAACVFRSGIEIVMCGLDVTNQAILTPDYLSTLPQLNRTGKMLHALFSHYRSGSMQSGLRMHDLCAIAWLVRPDLFTLKPCFVAVETQGEFTSGTTVVDIDGCLGKPANVQVALDLDVKGFQQWVAEVLALAS", "values": [{"measurement": "total protein half-life in vivo", "setting": "[1]", "value": "4.86 ± 1.4", "unit": "h"}, {"measurement": "total protein half-life in vivo", "setting": "[2]", "value": 4.75, "unit": "h"}, {"measurement": "total protein half-life in vivo", "setting": "[4]", "value": 4.13, "unit": "h"}, {"measurement": "total protein half-life in vivo", "setting": "[5]", "value": 3.64, "unit": "h"}, {"measurement": "total protein half-life in vivo", "setting": "[6]", "value": "2.8 ± 0.15", "unit": "h"}, {"measurement": "total protein half-life in vivo", "setting": "[7]", "value": "5.62 ± 0.1", "unit": "h"}, {"measurement": "total protein half-life in vivo", "setting": "[8]", "value": "9.27 ± 3.1", "unit": "h"}, {"measurement": "total protein half-life in vivo", "setting": "[9]", "value": 3.89, "unit": "h"}, {"measurement": "total protein half-life in vivo", "setting": "[10]", "value": 11.1, "unit": "h"}, {"measurement": "total protein half-life in vivo", "setting": "[12]", "value": "8.95 ± 3.1", "unit": "h"}]}, {"sequence": "MRLTTKFSAFVTLLTGLTIFVTLLGCSLSFYNAIQYKFSHRVQAVATAIDTHLVSNDFSVLRPQITELMMSADIVRVDLLHGDKQVYTLARNGSYRPVGSSDLFRELSVPLIKHPGMSLRLVYQDPMGNYFHSLMTTAPLTGAIGFIIVMLFLAVRWLQRQLAGQELLETRATRILNGERGSNVLGTIYEWPPRTSSALDTLLREIQNAREQHSRLDTLIRSYAAQDVKTGLNNRLFFDNQLATLLEDQEKVGTHGIVMMIRLPDFNMLSDTWGHSQVEEQFFTLTNLLSTFMMRYPGALLARYHRSDFAALLPHRTLKEAESIAGQLIKAVDTLPNNKMLDRDDMIHIGICAWRSGQDTEQVMEHAESATRNAGLQGGNSWAIYDDSLPEKGRGNVRWRTLIEQMLSRGGPRLYQKPAVTREGQVHHRELMCRIFDGNEEVSSAEYMPMVLQFGLSEEYDRLQISRLIPLLRYWPEENLAIQVTVESLIRPRFQRWLRDTLMQCEKSQRKRIIIELAEADVGQHISRLQPVIRLVNALGVRVAVNQAGLTLVSTSWIKELNVELLKLHPGLVRNIEKRTENQLLVQSLVEACSGTSTQVYATGVRSRSEWQTLIQRGVTGGQGDFFASSQPLDTNVKKYSQRYSV", "values": [{"measurement": "total protein half-life in vivo", "setting": "[1]", "value": "6 ± 1.2", "unit": "h"}, {"measurement": "total protein half-life in vivo", "setting": "[2]", "value": "6.52 ± 0.62", "unit": "h"}, {"measurement": "total protein half-life in vivo", "setting": "[3]", "value": "6.35 ± 0.42", "unit": "h"}, {"measurement": "total protein half-life in vivo", "setting": "[4]", "value": "5.67 ± 0.62", "unit": "h"}, {"measurement": "total protein half-life in vivo", "setting": "[5]", "value": "5.945 ± 0.0086", "unit": "h"}, {"measurement": "total protein half-life in vivo", "setting": "[6]", "value": "3.44 ± 0.17", "unit": "h"}, {"measurement": "total protein half-life in vivo", "setting": "[7]", "value": "6.042 ± 0.0062", "unit": "h"}, {"measurement": "total protein half-life in vivo", "setting": "[9]", "value": "6.45 ± 0.23", "unit": "h"}, {"measurement": "total protein half-life in vivo", "setting": "[10]", "value": "11.59 ± 0.06", "unit": "h"}, {"measurement": "total protein half-life in vivo", "setting": "[11]", "value": "5.52 ± 0.13", "unit": "h"}, {"measurement": "total protein half-life in vivo", "setting": "[12]", "value": "13 ± 0.43", "unit": "h"}]}, {"sequence": "MRNFDLSPLMRQWIGFDKLANALQNAGESQSFPPYNIEKSDDNHYRITLALAGFRQEDLEIQLEGTRLSVKGTPEQPKEEKKWLHQGLMNQPFSLSFTLAENMEVSGATFVNGLLHIDLIRNEPEPIAAQRIAISERPALNS [P0C058]", "values": [{"measurement": "total protein half-life in vivo", "setting": "[1]", "value": "6.3 ± 0.16", "unit": "h"}, {"measurement": "total protein half-life in vivo", "setting": "[2]", "value": "2.21 ± 0.097", "unit": "h"}, {"measurement": "total protein half-life in vivo", "setting": "[5]", "value": 1.42, "unit": "h"}, {"measurement": "total protein half-life in vivo", "setting": "[6]", "value": 1.03, "unit": "h"}, {"measurement": "total protein half-life in vivo", "setting": "[8]", "value": 1.59, "unit": "h"}, {"measurement": "total protein half-life in vivo", "setting": "[9]", "value": 4.47, "unit": "h"}, {"measurement": "total protein half-life in vivo", "setting": "[10]", "value": 3.19, "unit": "h"}]}, {"sequence": "MRNFDLSPLYRSAIGFDRLFNHLENNQSQSNGGYPPYNVELVDENHYRIAIAVAGFAESELEITAQDNLLVVKGAHADEQKERTYLYQGIAERNFERKFQLAENIHVRGANLVNGLLYIDLERVIPEAKKPRRIEIN [P0C054]", "values": [{"measurement": "total protein half-life in vivo", "setting": "[2]", "value": "3.11 ± 0.15", "unit": "h"}, {"measurement": "total protein half-life in vivo", "setting": "[3]", "value": "1.47 ± 0.1", "unit": "h"}, {"measurement": "total protein half-life in vivo", "setting": "[4]", "value": "2.83 ± 0.24", "unit": "h"}, {"measurement": "total protein half-life in vivo", "setting": "[5]", "value": "1.35 ± 0.082", "unit": "h"}, {"measurement": "total protein half-life in vivo", "setting": "[6]", "value": "1.2 ± 0.21", "unit": "h"}, {"measurement": "total protein half-life in vivo", "setting": "[7]", "value": "1.83 ± 0.025", "unit": "h"}, {"measurement": "total protein half-life in vivo", "setting": "[8]", "value": "1.87 ± 0.3", "unit": "h"}, {"measurement": "total protein half-life in vivo", "setting": "[9]", "value": "1.65 ± 0.42", "unit": "h"}, {"measurement": "total protein half-life in vivo", "setting": "[10]", "value": "2.7 ± 0.45", "unit": "h"}, {"measurement": "total protein half-life in vivo", "setting": "[11]", "value": "1.58 ± 0.077", "unit": "h"}, {"measurement": "total protein half-life in vivo", "setting": "[12]", "value": "3.08 ± 0.14", "unit": "h"}]}, {"sequence": "MRNHRISLQDIATLAGVTKMTVSRYIRSPKKVAKETGERIAKIMEEINYIPNRAPGMLLNAQSYTLGILIPSFQNQLFADILAGIESVTSEHNYQTLIANYNYDRDSEEESVINLLSYNIDGIILSEKYHTIRTVKFLRSATIPVVELMDVQGERLDMEVGFDNRQAAFDMVCTMLEKRVRHKILYLGSKDDTRDEQRYQGYCDAMMLHNLSPLRMNPRAISSIHLGMQLMRDALSANPDLDGVFCTNDDIAMGALLLCRERNLAVPEQISIAGFHGLEIGRQMIPSLASVITPRFDIGRMAAQMLLSKIKNNDHNHNTVDLGYQIYHGNTL", "values": [{"measurement": "total protein half-life in vivo", "setting": "[1]", "value": "6.39 ± 1.7", "unit": "h"}, {"measurement": "total protein half-life in vivo", "setting": "[6]", "value": 0.548, "unit": "h"}, {"measurement": "total protein half-life in vivo", "setting": "[8]", "value": 1.1, "unit": "h"}]}, {"sequence": "MRNIIKLALAGLLSVSTFAVAAESSPEALRIGYQKGSIGMVLAKSHQLLEKRYPESKISWVEFPAGPQMLEALNVGSIDLGSTGDIPPIFAQAAGADLVYVGVEPPKPKAEVILVAENSPIKTVADLKGHKVAFQKGSSSHNLLLRALRQAGLKFTDIQPTYLTPADARAAFQQGNVDAWAIWDPYYSAALLQGGVRVLKDGTDLNQTGSFYLAARPYAEKNGAFIQGVLATFSEADALTRSQREQSIALLAKTMGLPAPVIASYLDHRPPTTIKPVNAEVAALQQQTADLFYENRLVPKKVDIRQRIWQPTQLEGKQL", "values": [{"measurement": "total protein half-life in vivo", "setting": "[1]", "value": "5.27 ± 1.8", "unit": "h"}, {"measurement": "total protein half-life in vivo", "setting": "[2]", "value": "5.07 ± 0.72", "unit": "h"}, {"measurement": "total protein half-life in vivo", "setting": "[4]", "value": "4.66 ± 1.7", "unit": "h"}, {"measurement": "total protein half-life in vivo", "setting": "[5]", "value": "5.32 ± 0.25", "unit": "h"}, {"measurement": "total protein half-life in vivo", "setting": "[6]", "value": "> 4", "unit": "h"}, {"measurement": "total protein half-life in vivo", "setting": "[7]", "value": "4.74 ± 0.1", "unit": "h"}, {"measurement": "total protein half-life in vivo", "setting": "[8]", "value": 8.06, "unit": "h"}, {"measurement": "total protein half-life in vivo", "setting": "[9]", "value": 5.64, "unit": "h"}, {"measurement": "total protein half-life in vivo", "setting": "[10]", "value": "12.52 ± 0.069", "unit": "h"}]}]}
